These results are taken from PMC11940890.

Among the targets are eFSHR-N191Q (equine) (UniProt P47799); eFSHR-N268Q (equine) (UniProt P47799); eFSHR-N293Q (equine) (UniProt P47799); eFSHR-N199Q (equine) (UniProt P47799).
The target in assay [1] is equine follicle-stimulating hormone receptor wild type (eFSHR-wt) (equine) (UniProt P47799).
Sequence of equine follicle-stimulating hormone receptor wild type (eFSHR-wt) (equine) (P47799 18-694): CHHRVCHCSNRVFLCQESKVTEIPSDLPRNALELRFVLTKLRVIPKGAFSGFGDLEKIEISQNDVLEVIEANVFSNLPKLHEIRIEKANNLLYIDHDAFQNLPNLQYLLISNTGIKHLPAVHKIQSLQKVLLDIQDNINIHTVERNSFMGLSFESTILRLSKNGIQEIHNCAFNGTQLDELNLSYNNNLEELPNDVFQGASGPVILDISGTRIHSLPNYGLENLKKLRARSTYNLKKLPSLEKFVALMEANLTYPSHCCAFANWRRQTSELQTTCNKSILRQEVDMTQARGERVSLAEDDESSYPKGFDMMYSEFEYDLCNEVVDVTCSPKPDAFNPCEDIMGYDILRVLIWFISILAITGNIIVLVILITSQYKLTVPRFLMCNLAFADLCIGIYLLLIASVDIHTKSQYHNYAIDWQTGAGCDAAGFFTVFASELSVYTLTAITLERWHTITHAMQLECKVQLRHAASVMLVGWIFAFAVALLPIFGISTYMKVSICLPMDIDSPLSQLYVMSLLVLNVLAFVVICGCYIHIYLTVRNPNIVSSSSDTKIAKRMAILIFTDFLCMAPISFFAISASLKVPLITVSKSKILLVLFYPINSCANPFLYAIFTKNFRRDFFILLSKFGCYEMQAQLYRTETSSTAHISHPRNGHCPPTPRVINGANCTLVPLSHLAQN

Sequence of Human FSH (hFSH) (P01215 25-116): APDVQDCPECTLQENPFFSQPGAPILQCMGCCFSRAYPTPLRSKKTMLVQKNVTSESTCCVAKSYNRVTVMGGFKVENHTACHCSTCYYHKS
Sequence of Human FSH (hFSH) (P01225 19-129): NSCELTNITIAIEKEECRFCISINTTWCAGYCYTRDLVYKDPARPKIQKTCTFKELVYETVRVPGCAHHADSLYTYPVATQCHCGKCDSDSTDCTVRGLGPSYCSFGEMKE
Sequence of eFSHR-N199Q (equine) (P47799 18-694 N199Q): as the sequence (P47799 18-694) above, with N182Q counted along it
Sequence of eFSHR-N191Q (equine) (P47799 18-694 N191Q): as the sequence (P47799 18-694) above, with N174Q counted along it
Sequence of eFSHR-N293Q (equine) (P47799 18-694 N293Q): as the sequence (P47799 18-694) above, with N276Q counted along it
Sequence of eFSHR-N268Q (equine) (P47799 18-694 N268Q): as the sequence (P47799 18-694) above, with N251Q counted along it

Turning to “Human FSH (hFSH) (from UniProt P01215 25-116; P01225 19-129) (ligand)”, the EC50 of hFSH-stimulated cAMP response (HTRF cAMP assay), CHO-K1 cells expressing the receptor, 30 min at room temperature was determined as 2.11 µg/mL with eFSHR-N191Q (equine); 0.806 µg/mL with eFSHR-N268Q (equine); 0.99 µg/mL in assay [1]; 1.24 µg/mL in the assay with eFSHR-N293Q (equine); 2.21 µg/mL with eFSHR-N199Q (equine).
